Measured values: US20030162714A1 (Pfizer, published 2003)

Target: T1, recombinant purified GDF-8 (UniProt O14793 267-375, limits assumed)
T1 sequence (looked up): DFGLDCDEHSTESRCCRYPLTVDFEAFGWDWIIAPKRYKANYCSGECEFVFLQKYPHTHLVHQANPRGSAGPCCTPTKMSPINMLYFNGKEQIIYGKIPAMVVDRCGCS
Assay: cell-based or functional assay

IC50 for inhibition of GDF-8 in the reporter gene assay ((CAGA)12 luciferase, RD cells, 20 ng/ml GDF-8): ~3 nM
B1: mouse GASP1 cloned with a C-terminal V5-His tag (GASP1-V5-His) (other, not shown: small tags and cut ends)
chain: LPPIRYSHAGICPNDMNPNLWVDAQSTCKRECETDQECETYEKCCPNVCGTKSCVAARYMDVKGKKGPVGMPKEATCDHFMCLQQGSECDIWDGQPVCKCKDRCEKEPSFTCASDGLTYYNRCFMDAEACSKGITLSVVTCRYHFTWPNTSPPPPETTVHPTTASPETLGLDMAAPALLNHPVHQSVTVGETVSFLCDVVGRPRPELTWEKQLEDRENVVMRPNHVRGNVVVTNIAQLVIYNVQPQDAGIYTCTARNVAGVLRADFPLSVVRGGQARATSESSLNGTAFPATECLKPPDSEDCGEEQTRWHFDAQANNCLTFTFGHCHHNLNHFETYEACMLACMSGPLATCSLPALQGPCKAYVPRWAYNSQTGLCQSFVYGGCEGNGNNFESREACEESCPFPRGNQHCRACKPRQKLVTSFCRSDFVILGRVSELTEEQDSGRALVTVDEVLKDEKMGLKFLGREPLEVTLLHVDWTCPCPNVTVGETPLIIMGEVDGGMAMLRPDSFVGASSTRRVRKLREVMYKKTCDVLKDFLGLQ
